Target: the molecule itself
Assay: SAXS

B1: TFG N terminus (amino acids 1-138), wild type (domain or fragment, human, UniProt Q92734 1-138, looked up)
chain: MNGQLDLSGKLIIKAQLGEDIRRIPIHNEDITYDELVLMMQRVFRGKLLSNDEVTIKYKDEDGDLITIFDSSDLSFAIQCSRILKLTLFVNGQPRPLESSQVKYLRRELIELRNKVNRLLDSLEPPGEPGPSTNIPEN
- stoichiometry N: 8

Source: paper PMC6152936 (Cell reports, 2018)
